Laboratory results taken from patent US20090252683A1 (Amgen, published 2009).

B1: SEQ ID NO. 170 × EGFR LH (bispecific antibody)
chain: EVQLVESGGGLVQPGGSLKLSCAASGFTFNTYAMNWVRQAPGKGLEWVARIRSKYNNYATYYADSVKDRFTISRDDSKNTAYLQMNNLKTEDTAVYYCVRHGNFGNSYVSWFAYWGQGTLVTVSSGGGGSGGGGSGGGGSQTVVTQEPSLTVSPGGTVTLTCRSSTGAVTTSNYANWVQQKPGQAPRGLIGGTNKRAPGTPARFSGSLLGGKAALTLSGVQPEDEAEYYCALWYSNLWVFGGGTKLTVLSGGGGSDIVLTQSPASLPVSLGQRATISCRASQSVSSSTYSYIHWYQQKPGQPPKLLITYASNLESGVPARFSGSGSGTDFTLDIHPVEEDDSSTYYCQHSWEIPFTFGSGTKLEIKGGGGSGGGGSGGGGSQVQLQQSGPDLVKPGASVKMSCKASGHTFTDCVIIWVKQRAGQGLEWIGQIYPGTGRSYYNEIFKGKATLTADKSSNTVHIQLSSLTSEDSAVYFCALSTLIHGTWFSYWGQGTLVTVSSHHHHHH
notes: 184 as EGFR LH; the appendix heads it EGFR HL; ends with HHHHHH and *VD in the appendix
B2: EGFR HL × SEQ ID NO. 194 (bispecific antibody)
chain: QVQLQQSGPDLVKPGASVKMSCKASGHTFTDCVIIWVKQRAGQGLEWIGQIYPGTGRSYYNEIFKGKATLTADKSSNTVHIQLSSLTSEDSAVYFCALSTLIHGTWFSYWGQGTLVTVSSGGGGSGGGGSGGGGSDIVLTQSPASLPVSLGQRATISCRASQSVSSSTYSYIHWYQQKPGQPPKLLITYASNLESGVPARFSGSGSGTDFTLDIHPVEEDDSSTYYCQHSWEIPFTFGSGTKLEIKSGGGGSQTVVTQEPSLTVSPGGTVTLTCRSSTGAVTTSNYANWVQQKPGQAPRGLIGGTNKRAPGTPARFSGSLLGGKAALTLSGVQPEDEAEYYCALWYSNLWVFGGGTKLTVLGGGGSGGGGSGGGGSEVQLVESGGGLVQPGGSLKLSCAASGFTFNTYAMNWVRQAPGKGLEWVARIRSKYNNYATYYADSVKDRFTISRDDSKNTAYLQMNNLKTEDTAVYYCVRHGNFGNSYVSWFAYWGQGTLVTVSSHHHHHH
notes: the appendix prints the entry with HHHHHH and then *VD at its end
B3: SEQ ID NO. 194 × EGFR HL (bispecific antibody)
chain: QTVVTQEPSLTVSPGGTVTLTCRSSTGAVTTSNYANWVQQKPGQAPRGLIGGTNKRAPGTPARFSGSLLGGKAALTLSGVQPEDEAEYYCALWYSNLWVFGGGTKLTVLGGGGSGGGGSGGGGSEVQLVESGGGLVQPGGSLKLSCAASGFTFNTYAMNWVRQAPGKGLEWVARIRSKYNNYATYYADSVKDRFTISRDDSKNTAYLQMNNLKTEDTAVYYCVRHGNFGNSYVSWFAYWGQGTLVTVSSSGGGGSQVQLQQSGPDLVKPGASVKMSCKASGHTFTDCVIIWVKQRAGQGLEWIGQIYPGTGRSYYNEIFKGKATLTADKSSNTVHIQLSSLTSEDSAVYFCALSTLIHGTWFSYWGQGTLVTVSSGGGGSGGGGSGGGGSDIVLTQSPASLPVSLGQRATISCRASQSVSSSTYSYIHWYQQKPGQPPKLLITYASNLESGVPARFSGSGSGTDFTLDIHPVEEDDSSTYYCQHSWEIPFTFGSGTKLEIKHHHHHH
notes: as for B2
B4: EGFR LH × SEQ ID NO. 170 (bispecific antibody)
chain: DIVLTQSPASLPVSLGQRATISCRASQSVSSSTYSYIHWYQQKPGQPPKLLITYASNLESGVPARFSGSGSGTDFTLDIHPVEEDDSSTYYCQHSWEIPFTFGSGTKLEIKGGGGSGGGGSGGGGSQVQLQQSGPDLVKPGASVKMSCKASGHTFTDCVIIWVKQRAGQGLEWIGQIYPGTGRSYYNEIFKGKATLTADKSSNTVHIQLSSLTSEDSAVYFCALSTLIHGTWFSYWGQGTLVTVSSGGGGSEVQLVESGGGLVQPGGSLKLSCAASGFTFNTYAMNWVRQAPGKGLEWVARIRSKYNNYATYYADSVKDRFTISRDDSKNTAYLQMNNLKTEDTAVYYCVRHGNFGNSYVSWFAYWGQGTLVTVSSGGGGSGGGGSGGGGSQTVVTQEPSLTVSPGGTVTLTCRSSTGAVTTSNYANWVQQKPGQAPRGLIGGTNKRAPGTPARFSGSLLGGKAALTLSGVQPEDEAEYYCALWYSNLWVFGGGTKLTVLHHHHHH
notes: as for B2
B5: EGFR LH × SEQ ID NO. 194 (bispecific antibody)
chain: DIVLTQSPASLPVSLGQRATISCRASQSVSSSTYSYIHWYQQKPGQPPKLLITYASNLESGVPARFSGSGSGTDFTLDIHPVEEDDSSTYYCQHSWEIPFTFGSGTKLEIKGGGGSGGGGSGGGGSQVQLQQSGPDLVKPGASVKMSCKASGHTFTDCVIIWVKQRAGQGLEWIGQIYPGTGRSYYNEIFKGKATLTADKSSNTVHIQLSSLTSEDSAVYFCALSTLIHGTWFSYWGQGTLVTVSSSGGGGSQTVVTQEPSLTVSPGGTVTLTCRSSTGAVTTSNYANWVQQKPGQAPRGLIGGTNKRAPGTPARFSGSLLGGKAALTLSGVQPEDEAEYYCALWYSNLWVFGGGTKLTVLGGGGSGGGGSGGGGSEVQLVESGGGLVQPGGSLKLSCAASGFTFNTYAMNWVRQAPGKGLEWVARIRSKYNNYATYYADSVKDRFTISRDDSKNTAYLQMNNLKTEDTAVYYCVRHGNFGNSYVSWFAYWGQGTLVTVSSHHHHHH
notes: as for B2
B6: EGFR HL × SEQ ID NO. 170 (bispecific antibody)
chain: QVQLQQSGPDLVKPGASVKMSCKASGHTFTDCVIIWVKQRAGQGLEWIGQIYPGTGRSYYNEIFKGKATLTADKSSNTVHIQLSSLTSEDSAVYFCALSTLIHGTWFSYWGQGTLVTVSSGGGGSGGGGSGGGGSDIVLTQSPASLPVSLGQRATISCRASQSVSSSTYSYIHWYQQKPGQPPKLLITYASNLESGVPARFSGSGSGTDFTLDIHPVEEDDSSTYYCQHSWEIPFTFGSGTKLEIKSGGGGSEVQLVESGGGLVQPGGSLKLSCAASGFTFNTYAMNWVRQAPGKGLEWVARIRSKYNNYATYYADSVKDRFTISRDDSKNTAYLQMNNLKTEDTAVYYCVRHGNFGNSYVSWFAYWGQGTLVTVSSGGGGSGGGGSGGGGSQTVVTQEPSLTVSPGGTVTLTCRSSTGAVTTSNYANWVQQKPGQAPRGLIGGTNKRAPGTPARFSGSLLGGKAALTLSGVQPEDEAEYYCALWYSNLWVFGGGTKLTVLHHHHHH
notes: the appendix prints the entry with HHHHHH and then *VD (stop and vector residues) at its end
B7: SEQ ID NO. 194 × EGFR LH (bispecific antibody)
chain: QTVVTQEPSLTVSPGGTVTLTCRSSTGAVTTSNYANWVQQKPGQAPRGLIGGTNKRAPGTPARFSGSLLGGKAALTLSGVQPEDEAEYYCALWYSNLWVFGGGTKLTVLGGGGSGGGGSGGGGSEVQLVESGGGLVQPGGSLKLSCAASGFTFNTYAMNWVRQAPGKGLEWVARIRSKYNNYATYYADSVKDRFTISRDDSKNTAYLQMNNLKTEDTAVYYCVRHGNFGNSYVSWFAYWGQGTLVTVSSSGGGGSDIVLTQSPASLPVSLGQRATISCRASQSVSSSTYSYIHWYQQKPGQPPKLLITYASNLESGVPARFSGSGSGTDFTLDIHPVEEDDSSTYYCQHSWEIPFTFGSGTKLEIKGGGGSGGGGSGGGGSQVQLQQSGPDLVKPGASVKMSCKASGHTFTDCVIIWVKQRAGQGLEWIGQIYPGTGRSYYNEIFKGKATLTADKSSNTVHIQLSSLTSEDSAVYFCALSTLIHGTWFSYWGQGTLVTVSSHHHHHH
notes: 186 as EGFR LH; the appendix heads it EGFR HL; ends with HHHHHH and *VD in the appendix
B8: SEQ ID NO. 170 × EGFR HL (bispecific antibody)
chain: EVQLVESGGGLVQPGGSLKLSCAASGFTFNTYAMNWVRQAPGKGLEWVARIRSKYNNYATYYADSVKDRFTISRDDSKNTAYLQMNNLKTEDTAVYYCVRHGNFGNSYVSWFAYWGQGTLVTVSSGGGGSGGGGSGGGGSQTVVTQEPSLTVSPGGTVTLTCRSSTGAVTTSNYANWVQQKPGQAPRGLIGGTNKRAPGTPARFSGSLLGGKAALTLSGVQPEDEAEYYCALWYSNLWVFGGGTKLTVLSGGGGSQVQLQQSGPDLVKPGASVKMSCKASGHTFTDCVIIWVKQRAGQGLEWIGQIYPGTGRSYYNEIFKGKATLTADKSSNTVHIQLSSLTSEDSAVYFCALSTLIHGTWFSYWGQGTLVTVSSGGGGSGGGGSGGGGSDIVLTQSPASLPVSLGQRATISCRASQSVSSSTYSYIHWYQQKPGQPPKLLITYASNLESGVPARFSGSGSGTDFTLDIHPVEEDDSSTYYCQHSWEIPFTFGSGTKLEIKHHHHHH
notes: as for B2

These binders were tested against T1, human EGFR on A431 cells (human, UniProt P00533 25-1210) (assay: FACS, A431 cells, 1 µg/ml purified protein, anti-His detection).
T1 construct: whole, on cells
Protocol: In order to test the functionality of the cross-species specific bispecific antibody constructs with regard to binding capability to human and cynomolgus EGFR and CD3, respectively, a FACS analysis was performed. For this purpose the EGFR positive epidermoid carcinoma A431 cells (ATCC, CRL-1555) and CD3 positive human T cell leukemia cell line HPB-ALL (DSMZ, Braunschweig, ACC483) were used to check the binding to human antigens. The binding reactivity to cynomolgus antigens was tested by using the generated cynomolgus EGFR transfectants described in Example 20 and cynomolgus PBMCs which were obtained by Ficoll density gradient centrifugation. 200,000 cells of the respective cell population were incubated for 30 min on ice with 50 μl of the purified protein of the cross-species specific bispecific antibody constructs (1 μg/ml). The cells were washed twice in PBS and binding of the construct was detected with an unlabeled murine Penta His antibody (diluted 1:20 in 50 μl PBS with 2% FCS; Qiagen; Order No. 34660). After washing, bound anti His antibodies were detected with an Fc gamma-specific antibody (Dianova) conjugated to phycoerythrin, diluted 1:100 in 50 μl PBS with 2% FCS. Fresh culture medium was used as a negative control.
Cells were analyzed by flow cytometry on a FACS-Calibur apparatus (Becton Dickinson, Heidelberg). FACS staining and measuring of the fluorescence intensity were performed as described in Current Protocols in Immunology (Coligan, Kruisbeek, Margulies, Shevach and Strober, Wiley-Interscience, 2002).

Binding result, binds:
B1
B2
B3
B4
B5
B6
B7
B8
